Source: the supplement of paper PMC6755084

B1: F1*; a variant is named by its letters at N, in order (parent)
chain: GAGACCGCAACTGAAAAGTTGTTATCNNNNNNNNAANNNNNTTNGNNGGGTTGAAGTTCTGCACGTAGAAGCAAAAGGC

Variants of: B1
Assay: fraction ligated after 30 min (ligated reads / total reads); higher = more ligase activity
Conditions: with F1*sub RNA substrate (template-directed ligation), 42 °C
Procedure: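 Chip-synthesised pool of F1* ligase ribozyme variants (all single and double substitutions, single, double and triple deletions in the catalytic core and GAA bulge, plus designed variants) was transcribed with T7 and reacted as a pool with excess substrate F1*sub for 30 min at 42 C in 50 mM EPPS pH 8.5, 25 mM MgCl2. Ligated and unligated bands were separated by PAGE, barcoded by RT and deep sequenced; fraction ligated = ligated reads / total reads per variant, relative activity = FL / FL of wild type (0.826). Sequences are the DNA template of the ribozyme.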

Variant | fraction ligated
GAGACCGCAACTGAAAAGTTGTTATCACTTTCGTAAGACACTTGGATGGGTTGAAGTTCTGCACGTAGAAGCAAAAGGC [ACTTTCGTGACACGAT] | 0.779
GAGACCGCAACTGAAAAGTTGTTATCACTGTCGTAAGAACTTTGGATGGGTTGAAGTTCTGCACGTAGAAGCAAAAGGC [ACTGTCGTGAACTGAT] | 0.858
GAGACCGCAACTGAAAAGTTGTTATCACTTGTCGAAGACATTTGGATGGGTTGAAGTTCTGCACGTAGAAGCAAAAGGC [ACTTGTCGGACATGAT] | 0.831
GAGACCGCAACTGAAAAGTTGTTATCACTTGTCGAAACACTTTGGATGGGTTGAAGTTCTGCACGTAGAAGCAAAAGGC [ACTTGTCGACACTGAT] | 0.822
GAGACCGCAACTGAAAAGTTGTTATCACTTGTCTAAGAACTTTGGATGGGTTGAAGTTCTGCACGTAGAAGCAAAAGGC [ACTTGTCTGAACTGAT] | 0.787
GAGACCGCAACTGAAAAGTTGTTATCACTTGTCTAAGACACTTGGATGGGTTGAAGTTCTGCACGTAGAAGCAAAAGGC [ACTTGTCTGACACGAT] | 0.786
GAGACCGCAACTGAAAAGTTGTTATCCTTGTCGTAAGACACTTTGATGGGTTGAAGTTCTGCACGTAGAAGCAAAAGGC [CTTGTCGTGACACTAT] | 0.779
GAGACCGCAACTGAAAAGTTGTTATCACTTGTGTAAGACACTTTGATGGGTTGAAGTTCTGCACGTAGAAGCAAAAGGC [ACTTGTGTGACACTAT] | 0.797
GAGACCGCAACTGAAAAGTTGTTATCCTTGTCGTAAGCACTTTGGATGGGTTGAAGTTCTGCACGTAGAAGCAAAAGGC [CTTGTCGTGCACTGAT] | 0.776
GAGACCGCAACTGAAAAGTTGTTATCATTGTCGTAAGACATTTGGATGGGTTGAAGTTCTGCACGTAGAAGCAAAAGGC [ATTGTCGTGACATGAT] | 0.811
GAGACCGCAACTGAAAAGTTGTTATCATTGTCGTAAGACCTTTGGATGGGTTGAAGTTCTGCACGTAGAAGCAAAAGGC [ATTGTCGTGACCTGAT] | 0.79
GAGACCGCAACTGAAAAGTTGTTATCACTTGTCGAAGACACTTTGGTGGGTTGAAGTTCTGCACGTAGAAGCAAAAGGC [ACTTGTCGGACACTGT] | 0.236
GAGACCGCAACTGAAAAGTTGTTATCATTGTCGTAAGACACTTTGGAGGGTTGAAGTTCTGCACGTAGAAGCAAAAGGC [ATTGTCGTGACACTGA] | 0.12
GAGACCGCAACTGAAAAGTTGTTATCATTGTCGTAAGACACTTTGGTGGGTTGAAGTTCTGCACGTAGAAGCAAAAGGC [ATTGTCGTGACACTGT] | 0.583
GAGACCGCAACTGAAAAGTTGTTATCACTTGTGTAAACACTTTGGATGGGTTGAAGTTCTGCACGTAGAAGCAAAAGGC [ACTTGTGTACACTGAT] | 0.86
GAGACCGCAACTGAAAAGTTGTTATCACTTGTGTAAGACACTTTGGAGGGTTGAAGTTCTGCACGTAGAAGCAAAAGGC [ACTTGTGTGACACTGA] | 0.0628
GAGACCGCAACTGAAAAGTTGTTATCACTTGTCTAAGACATTTGGATGGGTTGAAGTTCTGCACGTAGAAGCAAAAGGC [ACTTGTCTGACATGAT] | 0.834

Variant | fraction ligated
GAGACCGCAACTGAAAAGTTGTTATCCTTGTCGTAAGACACTTTGGAGGGTTGAAGTTCTGCACGTAGAAGCAAAAGGC [CTTGTCGTGACACTGA] | 0.00758
GAGACCGCAACTGAAAAGTTGTTATCCTTGTCGTAAGACACTTTGGTGGGTTGAAGTTCTGCACGTAGAAGCAAAAGGC [CTTGTCGTGACACTGT] | 0.346
GAGACCGCAACTGAAAAGTTGTTATCACTTTCGTAAGACCTTTGGATGGGTTGAAGTTCTGCACGTAGAAGCAAAAGGC [ACTTTCGTGACCTGAT] | 0.773
GAGACCGCAACTGAAAAGTTGTTATCACTTTCGTAAGACACTTTGGTGGGTTGAAGTTCTGCACGTAGAAGCAAAAGGC [ACTTTCGTGACACTGT] | 0.0695
GAGACCGCAACTGAAAAGTTGTTATCACTTTCGTAAGACACTTTGGAGGGTTGAAGTTCTGCACGTAGAAGCAAAAGGC [ACTTTCGTGACACTGA] | 0.0557
GAGACCGCAACTGAAAAGTTGTTATCACTTTCGTAAGAACTTTGGATGGGTTGAAGTTCTGCACGTAGAAGCAAAAGGC [ACTTTCGTGAACTGAT] | 0.873
GAGACCGCAACTGAAAAGTTGTTATCACTTGTGTAAGCACTTTGGATGGGTTGAAGTTCTGCACGTAGAAGCAAAAGGC [ACTTGTGTGCACTGAT] | 0.875
GAGACCGCAACTGAAAAGTTGTTATCACTTTCGTAAACACTTTGGATGGGTTGAAGTTCTGCACGTAGAAGCAAAAGGC [ACTTTCGTACACTGAT] | 0.811
GAGACCGCAACTGAAAAGTTGTTATCACTTGCGTAAGAACTTTGGATGGGTTGAAGTTCTGCACGTAGAAGCAAAAGGC [ACTTGCGTGAACTGAT] | 0.85
GAGACCGCAACTGAAAAGTTGTTATCACTGTCGTAAGACACTTTGATGGGTTGAAGTTCTGCACGTAGAAGCAAAAGGC [ACTGTCGTGACACTAT] | 0.79
GAGACCGCAACTGAAAAGTTGTTATCACTTGCGTAAGACACTTTGATGGGTTGAAGTTCTGCACGTAGAAGCAAAAGGC [ACTTGCGTGACACTAT] | 0.802
GAGACCGCAACTGAAAAGTTGTTATCCTTGTCGTAAGACATTTGGATGGGTTGAAGTTCTGCACGTAGAAGCAAAAGGC [CTTGTCGTGACATGAT] | 0.794
GAGACCGCAACTGAAAAGTTGTTATCACTTGCGTAAGCACTTTGGATGGGTTGAAGTTCTGCACGTAGAAGCAAAAGGC [ACTTGCGTGCACTGAT] | 0.856
GAGACCGCAACTGAAAAGTTGTTATCACTTGTCGAAGCACTTTGGATGGGTTGAAGTTCTGCACGTAGAAGCAAAAGGC [ACTTGTCGGCACTGAT] | 0.78
GAGACCGCAACTGAAAAGTTGTTATCACTTGTCTAAGACACTTTGATGGGTTGAAGTTCTGCACGTAGAAGCAAAAGGC [ACTTGTCTGACACTAT] | 0.775
GAGACCGCAACTGAAAAGTTGTTATCATTGTCGTAAGACACTTGGATGGGTTGAAGTTCTGCACGTAGAAGCAAAAGGC [ATTGTCGTGACACGAT] | 0.806
GAGACCGCAACTGAAAAGTTGTTATCCTTGTCGTAAACACTTTGGATGGGTTGAAGTTCTGCACGTAGAAGCAAAAGGC [CTTGTCGTACACTGAT] | 0.772
